Data on nine molecules can be found in patent US20150344570A1 (published 2015).

The target of experiment [1] is T1, FcγRIIIa (human, UniProt P08637 17-208).
T1 construct: extracellular domain; also called 3a; FcgRIIIa
In words: SPR (Biacore), antibody captured on antigen-peptide chip, FcγR as analyte; binding of He Ab / binding of HeCon Ab GpH7-A5/GpH7-B3/GpL16-k0 x 100. (In general: SPR reads the build-up and loss of mass on a sensor chip optically.)

Experiment [2] deals with T2, FcγRIIIa extracellular domain with C-terminal His tag (human, UniProt P08637 17-208).
T2 construct: extracellular domain; also called FcgRIIIa; 3a; not shown: His tag at the C terminus
T2 sequence (P08637 17-208): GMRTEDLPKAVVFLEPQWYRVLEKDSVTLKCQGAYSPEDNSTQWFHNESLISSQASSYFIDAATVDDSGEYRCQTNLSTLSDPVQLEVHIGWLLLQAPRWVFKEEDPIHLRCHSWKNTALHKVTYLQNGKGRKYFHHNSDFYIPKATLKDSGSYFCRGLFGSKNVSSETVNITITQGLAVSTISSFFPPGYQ
The experiment can be described thus: SPR (Biacore); He/Con for FcγRIIIa divided by He/Con for FcγRIIb. How it is done:
(§1) The heterodimerized antibodies He Abs in which one of the H chains was introduced with an alteration were assayed for their binding activities to each activating FcγR and inhibitory FcγR according to the method described in Example 4. […] The activating FcγRs in FIGS. 26, 27, 28, and 29 are FcγRIa, FcγRIIa (R), FcγRIIa (H), and FcγRIIIa, respectively.
(§2) Analysis of interaction between objective antibody and the FcγR was carried out using Biacore T100 (GE Healthcare). HBS-EP+ (GE Healthcare) was used as the running buffer, and the measurement temperature was set to 25° C. Chips produced by immobilizing the antigen peptide by the amine coupling method to a Series S Sencor Chip CM5 (GE Healthcare), or alternatively, chips produced by allowing preliminarily biotinylated antigen peptides to interact with and immobilize onto a Series S Sensor Chip SA (certified) (GE Healthcare) were used. Antibodies of interest were captured onto an antigen peptide-immobilized chip, and allowed to interact to each FcγR diluted with running buffer. To regenerate and repeatedly use the chip, the antibodies captured on the chip were washed off by reacting 10 mM glycine-HCl, pH 1.5.

The target in experiment [3] is T2, FcγRIIIa extracellular domain with …. In words: SPR (Biacore), antibody captured on antigen-peptide chip, FcγR as analyte; relative binding amount. How it is done:
as §1, §2

The target of experiment [4] is T3, FcγRIIb extracellular domain with C-terminal His tag (human, UniProt P31994 43-217).
T3 construct: extracellular domain; Soluble receptor expressed in FreeStyle293 cells and used as analyte in Biacore; also called FcgRIIb; 2b; not shown: His tag at the C terminus
T3 sequence (looked up): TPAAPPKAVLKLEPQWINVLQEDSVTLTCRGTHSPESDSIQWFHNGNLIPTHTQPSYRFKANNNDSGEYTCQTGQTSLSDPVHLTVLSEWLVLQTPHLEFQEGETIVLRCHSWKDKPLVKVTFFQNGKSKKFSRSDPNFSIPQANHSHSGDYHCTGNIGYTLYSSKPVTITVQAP
The experiment is described as above. How it is done:
as §1, §2

T1 sequence (P08637 17-208): as the sequence (P08637 17-208) above

B1: GpH7-A5/GpH7-B3 variant S239_10E/GpL16-k0 (He Ab) (antibody, human IgG1, kappa)
heavy 1: not shown
heavy 2: not shown
light: DIVMTQSPLSLPVTPGEPASISCQASESLVHSNRNTYLHWYLQKPGQSPQLLIYKVSNRFSGVPDRFSGSGSGTDFTLKISRVEAEDVGVYYCSQNTHVPPTFGQGTKVEIERTVAAPSVFIFPPSDEQLKSGTASVVCLLNNFYPREAKVQWKVDNALQSGNSQESVTEQDSKDSTYSLSSTLTLSKADYEKHKVYACEVTHQGLSSPVTKSFNRGEC
notes: Heterodimerized anti-glypican-3 antibody; the alteration stands only in the GpH7-B3 chain
Regarding B1, the He/Con_3a in experiment [1] is 181 relative to control = 100.

B2: GpH7-A5/GpH7-B3 variant S324_06M/GpL16-k0 (He Ab) (antibody, human IgG1, kappa)
heavy 1: not shown
heavy 2: not shown
light: DIVMTQSPLSLPVTPGEPASISCQASESLVHSNRNTYLHWYLQKPGQSPQLLIYKVSNRFSGVPDRFSGSGSGTDFTLKISRVEAEDVGVYYCSQNTHVPPTFGQGTKVEIERTVAAPSVFIFPPSDEQLKSGTASVVCLLNNFYPREAKVQWKVDNALQSGNSQESVTEQDSKDSTYSLSSTLTLSKADYEKHKVYACEVTHQGLSSPVTKSFNRGEC
notes: as for B1
B2: the He/Con_3a in experiment [1] is 113 relative to control = 100.

B3: GpH7-A5/GpH7-B3 variant T335_05P/GpL16-k0 (He Ab) (antibody, human IgG1, kappa)
heavy 1: not shown
heavy 2: not shown
light: DIVMTQSPLSLPVTPGEPASISCQASESLVHSNRNTYLHWYLQKPGQSPQLLIYKVSNRFSGVPDRFSGSGSGTDFTLKISRVEAEDVGVYYCSQNTHVPPTFGQGTKVEIERTVAAPSVFIFPPSDEQLKSGTASVVCLLNNFYPREAKVQWKVDNALQSGNSQESVTEQDSKDSTYSLSSTLTLSKADYEKHKVYACEVTHQGLSSPVTKSFNRGEC
notes: as for B1
Take B3: the He/Con_3a in experiment [1] is 105 relative to control = 100.

B4: GpH7-A5/GpH7-B3 variant S337_01G/GpL16-k0 (He Ab) (antibody, human IgG1, kappa)
heavy 1: not shown
heavy 2: not shown
light: DIVMTQSPLSLPVTPGEPASISCQASESLVHSNRNTYLHWYLQKPGQSPQLLIYKVSNRFSGVPDRFSGSGSGTDFTLKISRVEAEDVGVYYCSQNTHVPPTFGQGTKVEIERTVAAPSVFIFPPSDEQLKSGTASVVCLLNNFYPREAKVQWKVDNALQSGNSQESVTEQDSKDSTYSLSSTLTLSKADYEKHKVYACEVTHQGLSSPVTKSFNRGEC
notes: as for B1
In the case of B4, the He/Con_3a in experiment [1] was 102 relative to control = 100.

B5: GpH7-A5/GpH7-B3 variant Y296_20W/GpL16-k0 (He Ab) (antibody, human IgG1, kappa)
heavy 1: not shown
heavy 2: not shown
light: DIVMTQSPLSLPVTPGEPASISCQASESLVHSNRNTYLHWYLQKPGQSPQLLIYKVSNRFSGVPDRFSGSGSGTDFTLKISRVEAEDVGVYYCSQNTHVPPTFGQGTKVEIERTVAAPSVFIFPPSDEQLKSGTASVVCLLNNFYPREAKVQWKVDNALQSGNSQESVTEQDSKDSTYSLSSTLTLSKADYEKHKVYACEVTHQGLSSPVTKSFNRGEC
notes: as for B1
B5: the He/Con_3a in experiment [1] was 135 relative to control = 100.

B6: GpH7-A5/GpH7-B3 variant S298_03V/GpL16-k0 (He Ab) (antibody, human IgG1, kappa)
heavy 1: not shown
heavy 2: not shown
light: DIVMTQSPLSLPVTPGEPASISCQASESLVHSNRNTYLHWYLQKPGQSPQLLIYKVSNRFSGVPDRFSGSGSGTDFTLKISRVEAEDVGVYYCSQNTHVPPTFGQGTKVEIERTVAAPSVFIFPPSDEQLKSGTASVVCLLNNFYPREAKVQWKVDNALQSGNSQESVTEQDSKDSTYSLSSTLTLSKADYEKHKVYACEVTHQGLSSPVTKSFNRGEC
notes: as for B1
Consider B6, for which the He/Con_3a in experiment [1] is 109 relative to control = 100.

B7: GpH7-A5/GpH7-B3 variant I336_03V/GpL16-k0 (antibody, human IgG1, kappa)
heavy 1: not shown
heavy 2: not shown
light: DIVMTQSPLSLPVTPGEPASISCQASESLVHSNRNTYLHWYLQKPGQSPQLLIYKVSNRFSGVPDRFSGSGSGTDFTLKISRVEAEDVGVYYCSQNTHVPPTFGQGTKVEIERTVAAPSVFIFPPSDEQLKSGTASVVCLLNNFYPREAKVQWKVDNALQSGNSQESVTEQDSKDSTYSLSSTLTLSKADYEKHKVYACEVTHQGLSSPVTKSFNRGEC
notes: Heterodimerized anti-glypican-3 IgG1 (He Ab); The mutation is in the GpH7-B3 chain only; also called He Ab with I336V in GpH7-B3
As to B7, in experiment [2], the “He_3a/2b (IIIa/IIb)” value amounted to 1.24 ratio. Moreover, in experiment [3], the “He/Con_3a (IIIa binding)” value is 112 relative, GpH7-A5/GpH7-B3/GpL16-k0 = 100. Besides, the “He/Con_2b (IIb binding)” value in experiment [4] is 90.3 relative, GpH7-A5/GpH7-B3/GpL16-k0 = 100.

B8: GpH7-A5/GpH7-B3 variant S324_20W/GpL16-k0 (He Ab) (antibody, human IgG1, kappa)
heavy 1: not shown
heavy 2: not shown
light: DIVMTQSPLSLPVTPGEPASISCQASESLVHSNRNTYLHWYLQKPGQSPQLLIYKVSNRFSGVPDRFSGSGSGTDFTLKISRVEAEDVGVYYCSQNTHVPPTFGQGTKVEIERTVAAPSVFIFPPSDEQLKSGTASVVCLLNNFYPREAKVQWKVDNALQSGNSQESVTEQDSKDSTYSLSSTLTLSKADYEKHKVYACEVTHQGLSSPVTKSFNRGEC
notes: as for B1
As for B8, the He/Con_3a in experiment [1] is 102 relative to control = 100.

B9: GpH7-A5/GpH7-B3 variant S324_14T/GpL16-k0 (He Ab) (antibody, human IgG1, kappa)
heavy 1: not shown
heavy 2: not shown
light: DIVMTQSPLSLPVTPGEPASISCQASESLVHSNRNTYLHWYLQKPGQSPQLLIYKVSNRFSGVPDRFSGSGSGTDFTLKISRVEAEDVGVYYCSQNTHVPPTFGQGTKVEIERTVAAPSVFIFPPSDEQLKSGTASVVCLLNNFYPREAKVQWKVDNALQSGNSQESVTEQDSKDSTYSLSSTLTLSKADYEKHKVYACEVTHQGLSSPVTKSFNRGEC
notes: as for B1
Regarding B9, the He/Con_3a in experiment [1] is 103 relative to control = 100.
